# Paper doi:10.1101/2022.12.14.520480 (bioRxiv, 2022)
# Biological target: GST-LC3B (UniProt Q9GZQ8 1-120)
# Assay: pull-down
binder,measurement,value
MYC-tagged LIMP2 wild type (natural protein) MGRCCFYTAGTLSLLLLVTSVTLLVARVFQKAVDQSIEKKIVLRNGTEAFDSWEKPPLPVYTQFYFFNVTNPEEILRGETPRVEEVGPYTYRELRNKANIQFGDNGTTISAVSNKAYVFERDQSVGDPKIDLIRTLNIPVLTVIEWSQVHFLREIIEAMLKAYQQKLFVTHTVDELLWGYKDEILSLIHVFRPDISPYFGLFYEKNGTNDGDYVFLTGEDSYLNFTKIVEWNGKTSLDWWITDKCNMINGTDGDSFHPLITKDEVLYVFPSDFCRSVYITFSDYESVQGLPAFRYKVPAEILANTSDNAGFCIPEGNCLGSGVLNVSICKNGAPIIMSFPHFYQADERFVSAIEGMHPNQEDHETFVDINPLTGIILKAAKRFQINIYVKKLDDFVETGDIRTMVFPVMYLNESVHIDKETASRLKSMINTTLIITNIPYIIMALGVFFGLVFTWLACKGQGSMDEGTADERAPLIRT,binding result,binds
